Measured values taken from patent publication US20110256153A1 (IMMUNOGEN, published 2011).
Several values for one entry are separate records, joined by “and”; a condition that tells them apart may be missing. Equal values may be shown once.

Assays:
[1] = molecular target: T1, macaque CD37 (macaque, UniProt P11049 1-277 (human entry)); assay: flow cytometry, 300-19/CD37mac cells
T1 construct: Expressed on 300-19 cells transfected with pSRa-CD37mac (300-19/CD37mac cells); also called macaca CD37; macaque derived CD37 antigen
T1 chain: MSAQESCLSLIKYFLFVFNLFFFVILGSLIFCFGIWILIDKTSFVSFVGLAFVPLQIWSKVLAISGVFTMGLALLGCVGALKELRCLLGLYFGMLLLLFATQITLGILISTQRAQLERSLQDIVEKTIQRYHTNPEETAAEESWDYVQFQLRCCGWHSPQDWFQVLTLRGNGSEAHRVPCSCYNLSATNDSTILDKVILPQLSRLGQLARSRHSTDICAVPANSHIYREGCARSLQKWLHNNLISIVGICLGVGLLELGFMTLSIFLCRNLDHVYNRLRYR
Description: (§1) Binding specificity was tested by flow cytometry using purified antibodies. […] All murine antibodies were incubated for 3 h with either CD37-expressing 300-19 cells or the non-transfected 300-19 cells (1×10⁵ cells per sample) in 100 μL FACS buffer (RPMI-1640 medium supplemented with 2% normal goat serum). Then, the cells were pelleted, washed, and incubated for 1 h with 100 μL of FITC-conjugated goat anti-mouse IgG-antibody (Jackson Laboratory, 6 μg/mL in FACS buffer). The cells were pelleted again, washed with FACS buffer and resuspended in 200 μL of PBS containing 1% formaldehyde. Samples were acquired using a FACSCalibur flow cytometer with the HTS multiwell sampler or a FACS array flow cytometer and analyzed using CellQuest Pro (all from BD Biosciences, San Diego, US).
The murine antibodies muCD37-3, muCD37-12, muCD37-38, […], muCD37-51, muCD37-56 and muCD37-57 were assayed for their ability to bind to 300-19/CD37mac cells expressing macaque CD37. Flow cytometry binding assays were carried out using secondary FITC-conjugated goat-anti-murine or goat-anti-human antibodies, analyzed as described in Example 2. Binding was compared to the previously described anti-CD37 antibody WR17 and the anti-CD37 SMIP TRU-016. […] In contrast, muCD37-3, muCD37-12, the previously described anti-CD37 antibody WR17 and the anti-CD37 SMIP TRU-016 are unable to bind the macaque derived CD37 antigen.

[2] = molecular target: T2, hCD37-M45 (human/murine chimera, UniProt P11049 1-281); assay: flow cytometry, 300-19 cells expressing hCD37-M45
T2 construct: stably expressed on 300-19 cells; also called hCD37-M45 variant
T2 chain: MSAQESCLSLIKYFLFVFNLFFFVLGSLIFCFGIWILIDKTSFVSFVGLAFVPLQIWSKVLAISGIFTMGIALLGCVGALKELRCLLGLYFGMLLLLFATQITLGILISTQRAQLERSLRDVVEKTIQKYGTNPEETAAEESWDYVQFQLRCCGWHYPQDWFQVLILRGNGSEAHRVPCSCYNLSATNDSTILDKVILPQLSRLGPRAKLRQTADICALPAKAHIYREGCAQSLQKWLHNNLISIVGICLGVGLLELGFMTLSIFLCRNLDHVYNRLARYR
Description: as §1
(§2) Binding of various CD37 antibodies to cells expressing human CD37 wildtype and variants was analyzed by flow cytometry using 1.5 μg/mL of each antibody. The isolated antibodies of this invention were compared to commercially available CD37 antibody WR17, as well as the TRU-016 SMIP. […] Likewise, all antibodies tested bound the hCD37-M3 variant (FIG. 18B). In contrast, the isolated antibodies of this invention bound the hCD37-M1 variant, while TRU-016 and WR17 were unable to bind hCD37-M1 variant (FIG. 19A). The CD37-50 and CD37-51 antibodies and TRU-016 were also able to bind the hCD37-M45 variant. […] In contrast, the CD37-3, CD37-12, CD37-38, CD37-56 and CD37-57 antibodies require at least one of the AA residues in the hCD37-M45 variant that were changed to the corresponding murine AA residues for binding to the CD37 antigen.

[3] = molecular target: T3, human CD37 (human, UniProt P11049 1-278); assay: flow cytometry titration on BJAB cells; apparent Kd
T3 construct: Tetraspanin antigen; Expressed on 300-19 cells transfected with pSRa-CD37 (entire CDS) or endogenous on WSU-DLCL-2, BJAB and Ramos lymphoma cells; also called CD37 antigen; human CD37 wildtype
T3 sequence: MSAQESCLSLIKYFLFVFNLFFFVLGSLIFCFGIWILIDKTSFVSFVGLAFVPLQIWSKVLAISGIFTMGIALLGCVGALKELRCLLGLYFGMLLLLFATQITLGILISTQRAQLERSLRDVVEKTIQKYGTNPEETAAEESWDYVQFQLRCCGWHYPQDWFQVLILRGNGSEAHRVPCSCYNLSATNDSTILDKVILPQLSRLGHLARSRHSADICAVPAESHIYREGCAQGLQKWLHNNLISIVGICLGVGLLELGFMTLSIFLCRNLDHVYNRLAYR
Description: as §1
The humanized antibodies huCD37-38, huCD37-50, huCD37-51, huCD37-56 and chCD37-57 were assayed for their binding affinity to BJAB cells in comparison to their murine counterparts. Flow cytometry binding assays were carried out using secondary FITC-conjugated goat-anti-murine and -anti-human antibodies, analyzed as described in Example 2 and dose-response curves were generated by non-linear regression for each antibody. The value for the apparent dissociation constant (Kd) of each antibody was calculated using GraphPad Prism v4 (GraphPad software, San Diego, Calif.).

[4] = molecular target: T4, hCD37-M1 (human/murine chimera, UniProt P11049 1-281); assay: flow cytometry, 300-19 cells expressing hCD37-M1, 1.5 µg/mL antibody
T4 construct: stably expressed on 300-19 cells; also called hCD37-M1 variant
T4 chain: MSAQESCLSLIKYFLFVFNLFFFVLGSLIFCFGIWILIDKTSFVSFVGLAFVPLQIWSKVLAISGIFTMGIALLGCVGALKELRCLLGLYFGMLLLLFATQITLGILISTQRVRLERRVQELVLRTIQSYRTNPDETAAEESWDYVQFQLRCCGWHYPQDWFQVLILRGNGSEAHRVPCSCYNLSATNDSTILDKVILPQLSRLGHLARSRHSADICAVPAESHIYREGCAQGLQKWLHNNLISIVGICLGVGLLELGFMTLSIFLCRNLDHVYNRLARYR
Description: as §1, §2

[5] = molecular target: T5, hCD37-M3 (human/murine chimera, UniProt P11049 1-281); assay: flow cytometry, 300-19 cells expressing hCD37-M3, 1.5 µg/mL antibody
T5 construct: stably expressed on 300-19 cells; also called hCD37-M3 variant
T5 chain: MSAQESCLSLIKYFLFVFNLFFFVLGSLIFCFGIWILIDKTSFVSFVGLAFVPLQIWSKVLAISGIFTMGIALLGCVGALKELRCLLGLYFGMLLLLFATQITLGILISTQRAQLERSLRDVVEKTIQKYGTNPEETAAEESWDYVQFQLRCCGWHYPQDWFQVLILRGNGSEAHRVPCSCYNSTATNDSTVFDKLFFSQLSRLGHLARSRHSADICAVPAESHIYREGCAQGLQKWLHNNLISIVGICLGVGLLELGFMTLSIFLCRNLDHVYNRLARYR
Description: as §1, §2

[6] = molecular target: T3, human CD37; assay: cell-based or functional assay
[7] = molecular target: T3, human CD37; assay: flow cytometry titration on BJAB cells (FIG. 20A); apparent Kd
[8] = molecular target: T3, human CD37; assay: competition flow cytometry on BJAB cells; competitor PE-labeled muCD37-3 (1 nM)
Description: Flow cytometry binding assays using BJAB cells and a competitive binding format were used to evaluate binding affinity of chimeric and humanized versions of CD37-3. BJAB cells were incubated with a 1 nM concentration of PE-labeled muCD37-3 antibody and competition was measured by adding varying amounts of muCD37-3, chCD37-3, huCD37-3v1.0 or huCD37-3v1.01. The samples were incubated for 3 hrs at 4° C. Then, the cells were pelleted, washed with FACS buffer and resuspended in 200 μL of PBS containing 1% formaldehyde. Samples were acquired using a FACSCalibur flow cytometer with the HTS multiwell sampler and analyzed using CellQuest Pro (all from BD Biosciences, San Diego, US). The resulting mean PE fluorescence was plotted against the amount of competing antibody used in a semi-log plot. FIG. 9B depicts the dose-response curves generated by non-linear regression for each antibody. The value for the apparent dissociation constant (Kd) of each antibody was calculated using GraphPad Prism v4 (GraphPad software, San Diego, Calif.).

B1: muCD37-57 (antibody, mouse IgG2a, kappa, V domains shown)
VH: DVQLQESGPDLLKPSQSLSLTCTVTGYSITSGFAWHWIRQFPGNKLEWMGYILYSGSTVYSPSLKSRISITRDTSKNQFFLQLNSVTTEDTATYYCARGYYGYGAWFAYWGQGTLVTVSA
VL: QIVLTQSPAIMSASPGEKVTMTCSATSSVTYMHWYQQKSGTSPKRWIYDTSKLASGVPARFSGSGSGTSYSLTISSMEAEDAATYYCQQWSDNPPTFGSGTKLEIKR
notes: Murine hybridoma antibody
[1]
  binding result: binds
[2]
  binding result: no binding (tested: 1.5 µg/mL)
[3]
  Kd: 1 nM
[4]
  binding result: binds
[5]
  binding result: binds

B2: muCD37-56 (antibody, mouse IgG1, kappa, V domains shown)
VH: DVQLQESGPDLVKPSQSLSLTCTVTGYSITSGFAWHWIRQFPGNKLEWMGYIHYSGGTNYNPSLKSRVSITRDTSKNQFFLQLNSVTTEDTATYYCARGYYGFGAWFAYWGQGTLVPVSA
VL: QIVLTQSPAFMSASPGDKVTMTCSASSSVTYMHWYQQKSGTSPKRWIYDTSKLASGVPARFSGGGSGTSYSLTISTMEAEDAATYYCQQWISDPPTFGGGTKLEIKR
notes: Murine hybridoma antibody
[1]
  binding result: binds
[2]
  binding result: no binding (tested: 1.5 µg/mL)
[3]
  Kd: 0.4 nM
[4]
  binding result: binds
[5]
  binding result: binds

B3: huCD37-3-SMCC-DM1 (antibody, human IgG1, kappa, V domains shown)
VH: QVQVQESGPGLVAPSQTLSITCTVSGFSLTTSGVSWVRQPPGKGLEWLGVIWGDGSTNYHPSLKSRLSIKKDHSKSQVFLKLNSLTAADTATYYCAKGGYSLAHWGQGTLVTVSS
VL: DIQMTQSPSSLSVSVGERVTITCRASENIRSNLAWYQQKPGKSPKLLVNVATNLADGVPSRFSGSGSGTDYSLKINSLQPEDFGTYYCQHYWGTTWTFGQGTKLEIKR
modifications: DM1 attached through SMCC linker; attachment residues not stated; 3.5-4 DM1 per antibody
notes: heavy chain version as for huCD37-3, see its note
[6]
  EC50 of in vitro cytotoxicity, BJAB cells: 0.041 nM and 0.019 nM
  EC50 of in vitro cytotoxicity, Daudi cells: 0.065 nM and 0.036 nM
  EC50 of in vitro cytotoxicity, Namalwa cells: 0.033 nM
  EC50 of in vitro cytotoxicity, Raji cells: 0.071 nM
  EC50 of in vitro cytotoxicity, Raji-VCR cells: 0.11 nM
  EC50 of in vitro cytotoxicity, Ramos cells: 0.16 nM
  EC50 of in vitro cytotoxicity, SU-DHL-4 cells: 0.031 nM
  EC50 of in vitro cytotoxicity, WST-8 assay, Daudi cells: 0.067 nM
  EC50 of in vitro cytotoxicity, WST-8 assay, Granta-519 cells: 0.047 nM
[7]
  Kd: 0.46 nM

B4: huCD37-3-SPP-DM1 (antibody, human IgG1, kappa, V domains shown)
VH: QVQVQESGPGLVAPSQTLSITCTVSGFSLTTSGVSWVRQPPGKGLEWLGVIWGDGSTNYHPSLKSRLSIKKDHSKSQVFLKLNSLTAADTATYYCAKGGYSLAHWGQGTLVTVSS
VL: DIQMTQSPSSLSVSVGERVTITCRASENIRSNLAWYQQKPGKSPKLLVNVATNLADGVPSRFSGSGSGTDYSLKINSLQPEDFGTYYCQHYWGTTWTFGQGTKLEIKR
modifications: DM1 attached through SPP linker; attachment residues not stated; 3.5-4 DM1 per antibody
notes: as for B3
[6]
  EC50 of in vitro cytotoxicity, BJAB cells: 0.11 nM
  EC50 of in vitro cytotoxicity, Daudi cells: 0.12 nM
  EC50 of in vitro cytotoxicity, Granta-519 cells: 0.13 nM
[7]
  Kd: 0.56 nM

B5: huCD37-3-sulfo-mal-DM4 (antibody, human IgG1, kappa, V domains shown)
VH: QVQVQESGPGLVAPSQTLSITCTVSGFSLTTSGVSWVRQPPGKGLEWLGVIWGDGSTNYHPSLKSRLSIKKDHSKSQVFLKLNSLTAADTATYYCAKGGYSLAHWGQGTLVTVSS
VL: DIQMTQSPSSLSVSVGERVTITCRASENIRSNLAWYQQKPGKSPKLLVNVATNLADGVPSRFSGSGSGTDYSLKINSLQPEDFGTYYCQHYWGTTWTFGQGTKLEIKR
modifications: DM4 attached through 3-sulfo-mal linker; attachment residues not stated; 3.5-4 DM4 per antibody
notes: as for B3
[6]
  EC50 of in vitro cytotoxicity, BJAB cells: 0.11 nM
  EC50 of in vitro cytotoxicity, Daudi cells: 0.14 nM
  EC50 of in vitro cytotoxicity, Granta-519 cells: 0.088 nM
[7]
  Kd: 0.89 nM

B6: huCD37-3v1.0 (antibody, human IgG1, kappa, V domains shown)
VH: QVQVQESGPGLVAPSQTLSITCTVSGFSLTTSGVSWVRQPPGKGLEWLGVIWGDGSTNYHPSLKSRLSIKKDHSKSQVFLKLNSLTAADTATYYCAKGGYSLAHWGQGTLVTVSS
VL: DIQMTQSPSSLSVSVGERVTITCRASENIRSNLAWYQQKPGKSPKLLVNVATNLADGVPSRFSGSGSGTDYSLKINSLQPEDFGTYYCQHYWGTTWTFGQGTKLEIKR
notes: Resurfaced (humanized) CD37-3, version 1.0
[8]
  EC50: 1 nM

B7: huCD37-3v1.01 (antibody, human IgG1, kappa, V domains shown)
VH: QVQVQESGPGLVAPSQTLSITCTVSGFSLTTSGVSWVRQPPGKGLEWLGVIWGDGSTNYHSSLKSRLSIKKDHSKSQVFLKLNSLTAADTATYYCAKGGYSLAHWGQGTLVTVSS
VL: DIQMTQSPSSLSVSVGERVTITCRASENIRSNLAWYQQKPGKSPKLLVNVATNLADGVPSRFSGSGSGTDYSLKINSLQPEDFGTYYCQHYWGTTWTFGQGTKLEIKR
notes: also called huCD37-3v1.1
[8]
  EC50: 0.6 nM
